Reference: IntAct's records for PubMed 20727515

B1: ADP-ribosylation factor 6 (Homo sapiens), P62330 (parent)
chain: MGKVLSKIFGNKEMRILMLGLDAAGKTTILYKLKLGQSVTTIPTVGFNVETVTYKNVKFNVWDVGGQDKIRPLWRHYYTGTQGLIFVVDCADRDRIDEARQELHRIINDREMRDAIILIFANKQDLPDAMKPHEIQEKLGLTRIRDRNWYVQPSCATSGDGLYEGLTWLTSNYKS
partner: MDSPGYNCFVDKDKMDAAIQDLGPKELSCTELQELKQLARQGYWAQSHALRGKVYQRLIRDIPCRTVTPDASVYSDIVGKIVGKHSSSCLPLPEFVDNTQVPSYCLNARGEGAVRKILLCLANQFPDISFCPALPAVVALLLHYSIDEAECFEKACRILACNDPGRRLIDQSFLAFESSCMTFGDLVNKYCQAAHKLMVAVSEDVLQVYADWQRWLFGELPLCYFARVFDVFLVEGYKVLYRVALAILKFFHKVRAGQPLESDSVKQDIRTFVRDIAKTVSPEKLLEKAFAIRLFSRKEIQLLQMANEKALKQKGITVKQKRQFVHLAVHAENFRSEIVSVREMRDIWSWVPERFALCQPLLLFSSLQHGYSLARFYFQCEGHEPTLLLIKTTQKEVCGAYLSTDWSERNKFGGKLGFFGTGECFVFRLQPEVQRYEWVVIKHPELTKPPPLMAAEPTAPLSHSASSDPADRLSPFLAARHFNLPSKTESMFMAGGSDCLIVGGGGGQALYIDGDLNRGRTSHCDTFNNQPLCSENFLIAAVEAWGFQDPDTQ
B2: TBC1 domain family member 24 (Homo sapiens), Q9ULP9-2 (parent)
chain: B1 partner

Variants of: B1
Conditions: with TBC1D24, Q9ULP9-2

Row | effect of a mutation on the interaction | Variant
1 | increasing interaction strength | T27N
2 | with no effect | Q67L

Variants of: B2
Conditions: with arf6_human ARF6, P62330

Row | effect of a mutation on the interaction | Variant
3 | decreasing interaction strength | D147H
4 | with no effect | A509V
